This assay concerns the target HtpGMtb_C (C-terminal domain of HtpGMtb, wild type) (M. tuberculosis H37Rv). Nature of the assay: SEC-MALS. A general note: In gel filtration, larger molecules generally elute earlier.

Chain of HtpGMtb_C (C-terminal domain of HtpGMtb, wild type) (domain or fragment) (A1KKZ1 417-645 limits assumed): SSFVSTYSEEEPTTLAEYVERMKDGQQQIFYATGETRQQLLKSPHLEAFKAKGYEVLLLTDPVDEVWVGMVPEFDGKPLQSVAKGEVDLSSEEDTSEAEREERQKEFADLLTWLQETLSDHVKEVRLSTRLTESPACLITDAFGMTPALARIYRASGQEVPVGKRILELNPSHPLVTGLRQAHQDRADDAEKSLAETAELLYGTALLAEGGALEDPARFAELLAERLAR

“HtpGMtb_C (C-terminal domain of HtpGMtb, wild type) (domain or fragment)”: the stoichiometry N (commonly a count of units in the complex or per binding partner) is 2.

The values are drawn from publication PMC9403545, “Structure based design of effective HtpG-derived vaccine antigens against M. tuberculosis” (Frontiers in Molecular Biosciences, 2022).
